Key:
Assay in all cases: Ni-NTA co-precipitation after co-expression in E. coli
[1] = target: T1, PB2 residues 37-174 with N-terminal hexa-histidine tag and TEV cleavage site (influenza A/Puerto Rico/8/34 H1N1, UniProt A4GCJ6 37-174)
T1 sequence: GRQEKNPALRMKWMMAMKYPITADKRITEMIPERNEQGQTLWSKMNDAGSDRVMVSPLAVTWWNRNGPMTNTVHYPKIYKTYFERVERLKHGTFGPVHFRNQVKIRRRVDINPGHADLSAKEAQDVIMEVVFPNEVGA

[2] = target: PB2 residues 252-490 with N-terminal hexa-histidine tag and TEV cleavage site (influenza A/Puerto Rico/8/34 H1N1, UniProt B4URE6 252-490)
[3] = target: T2, PB2-N (residues 1-86) carrying a hexa-histidine tag at the N-terminal end (influenza A/Puerto Rico/8/34 H1N1, UniProt A4GCJ6 1-86)
T2 sequence: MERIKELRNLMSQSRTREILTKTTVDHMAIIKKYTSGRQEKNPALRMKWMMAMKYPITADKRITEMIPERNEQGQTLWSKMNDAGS

B1: PB1-C (C-terminal residues 678-757 of the RNA polymerase PB1 subunit, influenza A/Puerto Rico/8/34 H1N1) (other)
chain: SQRGVLEDEQMYQRCCNLFEKFFPSSSYRRPVGISSMVEAMVSRARIDARIDFESGRIKKEEFTEIMKICSTIEELRRQK
binding result [1]: no binding
binding result [2]: no binding
binding result [3]: binds

— patent US20110262944A1 (UNIVERSITY OF TSUKUBA, published 2011)
